These results are taken from patent publication US20200231648A1 (LENTIGEN TECHNOLOGY, published 2020).

Assay [1] concerns the target T1, CD19-Fc (R&D Biosystems) (UniProt P15391 20-291).
T1 construct: Bought staining reagent, 1 ug/sample; also called recombinant CD19; not shown: Fc part of the bought reagent (detected with goat anti-human Fc-gamma)
T1 sequence (looked up): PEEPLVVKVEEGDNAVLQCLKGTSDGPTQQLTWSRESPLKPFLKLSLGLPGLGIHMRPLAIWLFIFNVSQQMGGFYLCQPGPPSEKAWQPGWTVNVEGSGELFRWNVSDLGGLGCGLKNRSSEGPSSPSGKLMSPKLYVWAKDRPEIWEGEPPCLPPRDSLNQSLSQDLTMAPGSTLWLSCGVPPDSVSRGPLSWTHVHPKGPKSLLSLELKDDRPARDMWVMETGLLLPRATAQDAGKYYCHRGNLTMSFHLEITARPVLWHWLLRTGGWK
Briefly: flow cytometry, CAR T cells stained with CD19-Fc and CD20-biotin. On the procedure: (§1) Cells were washed twice and resuspended in 200 ul Staining Buffer before quantitative analysis by flow cytometry.
Background: In flow cytometry, cells or beads pass a laser one at a time.

Assay [2] deals with T2, CD20-biotin (Miltenyi Biotec) (UniProt P11836 142-188, limits assumed, biotin (site not stated)).
T2 construct: Bought staining reagent, 0.1 ug/sample, detected with streptavidin conjugate; also called recombinant CD20; CD20 biotin reagent
T2 chain (looked up): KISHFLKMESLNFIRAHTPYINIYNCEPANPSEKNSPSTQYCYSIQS
The assay is described as above. On the procedure:
as §1

B1: CAR LTG2200 (LP-2200-CD8 TM-41BB-CD3zeta) (other)
chain: QVQLQQSGPGLVKPSQTLSLTCAISGDSVSSNSAAWNWIRQSPSRGLEWLGRTYYRSKWYNDYAVSVKSRITINPDTSKNQFSLQLNSVTPEDTAVYYCAREVTGDLEDAFDIWGQGTMVTVSSGGGGSGGGGSGGGGSDIQMTQSPSSLSASVGDRVTITCRASQTIWSYLNWYQQRPGKAPNLLIYAASSLQSGVPSRFSGRGSGTDFTLTISSLQAEDFATYYCQQSYSIPQTFGQGTKLEIKAAATTTPAPRPPTPAPTIASQPLSLRPEACRPAAGGAVHTRGLDFACDIYIWAPLAGTCGVLLLSLVITLYCKRGRKKLLYIFKQPFMRPVQTTQEEDGCSCRFPEEEEGGCELRVKFSRSADAPAYQQGQNQLYNELNLGRREEYDVLDKRRGRDPEMGGKPRRKNPQEGLYNELQKDKMAEAYSEIGMKGERRRGKGHDGLYQGLSTATKDTYDALHMQALPPR
notes: Chimeric antigen receptor with the m971 anti-CD22 scFv on primary human T cells; The entry includes the leader peptide; also called 22-BBz; CAR22 LTG2200
Turning to B1, the binding result was “no binding (tested: 1 ug/sample)” in assay [1] and “no binding (tested: 0.1 ug/sample)” in assay [2].
